Measurements taken from publication PMC13440416.
pKd: −log10 of the molar value.

Test system: LexA (Escherichia coli)
Test: EMSA

## YNN1-LexO naked DNA
  pKd: > 8.30
